Reference: the supplement of paper PMC9112550, “Optimization of the antimicrobial peptide Bac7 by deep mutational scanning” (BMC Biology, 2022)

Tested on: Escherichia coli TOP10
Assay: shrunken log2 fold change of peptide-encoding DNA abundance (4.5 h post-induction vs induction); higher = less antimicrobial activity (less host growth inhibition)
Conditions: time post-induction: 4.5 h; library: site-saturation at positions 5, 18, 19, 20
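Note: peptides expressed intracellularly from a pBAD plasmid library in pooled LB shake-flask culture, induced with 0.3% L-arabinose, DNA abundance read by NGS, three biological replicates, DESeq2 with apeglm shrinkage.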

Row | Sequence | shrunken log2 fold change
1 | RRIRARPPRLPRPRPRPHCLPRP | -0.116
2 | RRIRARPPRLPRPRPRPYKRPRP | -0.23
3 | RRIRYRPPRLPRPRPRPQGLPRP | 0.0179
4 | RRIRNRPPRLPRPRPRPEMEPRP | -0.0148
5 | RRIRRRPPRLPRPRPRPDIAPRP | -0.0619
6 | RRIRTRPPRLPRPRPRPLSLPRP | -0.613
7 | RRIRNRPPRLPRPRPRPENYPRP | -0.553
8 | RRIRLRPPRLPRPRPRPYFTPRP | -0.468
9 | RRIRSRPPRLPRPRPRPQCQPRP | -0.146
10 | RRIRYRPPRLPRPRPRPDYEPRP | -0.105
11 | RRIRSRPPRLPRPRPRPWLMPRP | -0.156
12 | RRIRQRPPRLPRPRPRPWMPPRP | -0.167
13 | RRIRIRPPRLPRPRPRPPTVPRP | -0.155
14 | RRIRKRPPRLPRPRPRPHFAPRP | 0.336
15 | RRIRRRPPRLPRPRPRPFPWPRP | -0.0263
16 | RRIRPRPPRLPRPRPRPHWFPRP | 0.0501
17 | RRIRRRPPRLPRPRPRPNIHPRP | 0.564
18 | RRIRCRPPRLPRPRPRPVWEPRP | 0.176
19 | RRIRCRPPRLPRPRPRPEVTPRP | -0.0149
20 | RRIRERPPRLPRPRPRPCRPPRP | -0.00126
21 | RRIRMRPPRLPRPRPRPGACPRP | 0.73
22 | RRIRQRPPRLPRPRPRPNWQPRP | -0.0119
23 | RRIRSRPPRLPRPRPRPITIPRP | -0.324
24 | RRIRKRPPRLPRPRPRPIYLPRP | -0.305
25 | RRIRLRPPRLPRPRPRPQVYPRP | -0.11

Row | Sequence | shrunken log2 fold change
26 | RRIRNRPPRLPRPRPRPGIIPRP | -0.00401
27 | RRIRGRPPRLPRPRPRPKWSPRP | 0.564
28 | RRIRGRPPRLPRPRPRPCGQPRP | 0.142
29 | RRIRGRPPRLPRPRPRPEFTPRP | 0.74
30 | RRIRSRPPRLPRPRPRPLHEPRP | 0.339
31 | RRIRERPPRLPRPRPRPNFYPRP | -0.261
32 | RRIRARPPRLPRPRPRPMKCPRP | -0.0407
33 | RRIRFRPPRLPRPRPRPWDAPRP | -0.12
34 | RRIRRRPPRLPRPRPRPDVCPRP | -0.000628
35 | RRIRCRPPRLPRPRPRPLYAPRP | -0.3
36 | RRIRHRPPRLPRPRPRPYLKPRP | -0.298
37 | RRIRLRPPRLPRPRPRPDFWPRP | 0.484
38 | RRIRNRPPRLPRPRPRPCPCPRP | -0.0945
39 | RRIRIRPPRLPRPRPRPGSKPRP | -0.0906
40 | RRIRVRPPRLPRPRPRPGQAPRP | -0.0106
41 | RRIRPRPPRLPRPRPRPEICPRP | 0.0345
42 | RRIRMRPPRLPRPRPRPANGPRP | 0.094
43 | RRIRTRPPRLPRPRPRPAWPPRP | 0.444
44 | RRIRIRPPRLPRPRPRPCQWPRP | 0.0525
45 | RRIRSRPPRLPRPRPRPYMRPRP | -0.0496
46 | RRIRNRPPRLPRPRPRPSSSPRP | -0.0202
47 | RRIRARPPRLPRPRPRPECTPRP | 1.05
48 | RRIRHRPPRLPRPRPRPPPFPRP | 0.0505
49 | RRIRYRPPRLPRPRPRPNGQPRP | -0.0885
50 | RRIRSRPPRLPRPRPRPKGAPRP | 0.38
